{"source": "paper PMC7473174", "about": "(Cell reports, 2020)", "biological_target": "GST-(TEV)-ZGRF1-(His)6 (human, UniProt Q86YA3 1-2104)", "sequence (Q86YA3 whole entry)": "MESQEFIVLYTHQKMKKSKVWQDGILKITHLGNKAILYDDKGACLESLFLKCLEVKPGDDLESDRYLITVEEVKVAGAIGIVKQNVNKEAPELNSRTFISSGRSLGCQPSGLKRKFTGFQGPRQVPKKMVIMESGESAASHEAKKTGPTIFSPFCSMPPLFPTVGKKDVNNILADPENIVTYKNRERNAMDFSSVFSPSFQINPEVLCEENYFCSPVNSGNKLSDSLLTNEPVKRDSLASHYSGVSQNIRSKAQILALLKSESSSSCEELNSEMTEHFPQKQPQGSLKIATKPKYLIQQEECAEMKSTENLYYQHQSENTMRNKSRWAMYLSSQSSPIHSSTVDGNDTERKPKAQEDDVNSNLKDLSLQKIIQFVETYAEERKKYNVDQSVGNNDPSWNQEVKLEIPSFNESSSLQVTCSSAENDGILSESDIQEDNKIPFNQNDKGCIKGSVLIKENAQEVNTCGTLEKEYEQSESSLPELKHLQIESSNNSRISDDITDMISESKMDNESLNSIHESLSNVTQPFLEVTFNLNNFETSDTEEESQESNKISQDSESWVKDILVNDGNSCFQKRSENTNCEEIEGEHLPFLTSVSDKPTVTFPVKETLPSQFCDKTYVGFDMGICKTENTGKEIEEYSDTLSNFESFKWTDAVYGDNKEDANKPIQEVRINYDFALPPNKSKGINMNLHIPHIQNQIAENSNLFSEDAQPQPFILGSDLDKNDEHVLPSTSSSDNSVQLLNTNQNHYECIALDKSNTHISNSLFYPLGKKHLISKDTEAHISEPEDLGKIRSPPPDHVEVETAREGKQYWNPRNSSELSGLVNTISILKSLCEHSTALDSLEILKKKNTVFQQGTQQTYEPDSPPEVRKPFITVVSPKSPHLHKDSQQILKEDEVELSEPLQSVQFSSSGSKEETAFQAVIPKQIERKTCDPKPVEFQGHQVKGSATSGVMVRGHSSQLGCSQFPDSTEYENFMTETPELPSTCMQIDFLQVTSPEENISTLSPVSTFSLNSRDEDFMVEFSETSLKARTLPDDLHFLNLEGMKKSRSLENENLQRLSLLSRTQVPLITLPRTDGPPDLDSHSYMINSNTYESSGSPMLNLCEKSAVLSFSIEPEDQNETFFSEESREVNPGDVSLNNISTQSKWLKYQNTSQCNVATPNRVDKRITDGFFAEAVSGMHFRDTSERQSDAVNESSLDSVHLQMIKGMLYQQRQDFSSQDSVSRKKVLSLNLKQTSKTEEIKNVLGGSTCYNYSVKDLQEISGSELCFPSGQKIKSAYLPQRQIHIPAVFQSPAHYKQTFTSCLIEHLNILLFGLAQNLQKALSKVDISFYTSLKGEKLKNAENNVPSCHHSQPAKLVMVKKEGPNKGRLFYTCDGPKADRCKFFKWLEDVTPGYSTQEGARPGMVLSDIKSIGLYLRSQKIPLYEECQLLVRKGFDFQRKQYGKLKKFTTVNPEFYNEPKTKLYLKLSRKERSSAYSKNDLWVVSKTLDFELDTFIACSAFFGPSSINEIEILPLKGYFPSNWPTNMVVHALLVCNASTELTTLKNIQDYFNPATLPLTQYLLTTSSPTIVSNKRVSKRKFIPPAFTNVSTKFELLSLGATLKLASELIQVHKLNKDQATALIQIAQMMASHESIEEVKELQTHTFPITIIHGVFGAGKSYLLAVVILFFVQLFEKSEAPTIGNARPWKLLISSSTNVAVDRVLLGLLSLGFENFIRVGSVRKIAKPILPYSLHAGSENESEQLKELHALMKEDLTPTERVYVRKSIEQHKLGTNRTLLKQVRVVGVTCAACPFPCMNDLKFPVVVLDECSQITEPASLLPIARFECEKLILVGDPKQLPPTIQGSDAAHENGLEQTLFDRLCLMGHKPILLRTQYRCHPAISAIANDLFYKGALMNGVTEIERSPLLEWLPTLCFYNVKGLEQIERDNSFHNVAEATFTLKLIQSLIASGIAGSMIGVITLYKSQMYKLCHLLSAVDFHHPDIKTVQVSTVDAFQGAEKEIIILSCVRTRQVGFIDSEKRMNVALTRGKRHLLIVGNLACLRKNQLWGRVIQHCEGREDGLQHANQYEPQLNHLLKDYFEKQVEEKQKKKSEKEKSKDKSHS", "assay": "pull-down", "data": [{"binder": "human RAD51 (natural protein, UniProt Q06609 1-339, looked up) MAMQMQLEANADTSVEEESFGPQPISRLEQCGINANDVKKLEEAGFHTVEAVAYAPKKELINIKGISEAKADKILAEAAKLVPMGFTTATEFHQRRSEIIQITTGSKELDKLLQGGIETGSITEMFGEFRTGKTQICHTLAVTCQLPIDRGGGEGKAMYIDTEGTFRPERLLAVAERYGLSGSDVLDNVAYARAFNTDHQTQLLYQASAMMVESRYALLIVDSATALYRTDYSGRGELSARQMHLARFLRMLLRLADEFGVAVVITNQVVAQVDGAAMFAADPKKPIGGNIIAHASTTRLYLRKGRGETRICKIYDSPCLPEAEAMFAINADGVGDAKD", "values": [{"measurement": "binding result", "result": "binds"}]}]}
